In US20260109776A1 (Amgen, published 2026):
Read-outs that look alike come from different tables or passages of the source.

How the values were obtained:
human CD40 = human CD40 (human, UniProt P25942 21-193, limits assumed); test: Octet
Procedure: (§1) The binding affinity of anti-human CD40 antibodies to human and cynomolgus monkey CD40 was measured by Octet assay (Table 3), quantifying association rate (Kon), disassociation rate (Kdis), and equilibrium binding constant (KD). Cross-reactivity of anti-CD40 antibodies to related TNF receptor superfamily (TNFRSF) members was evaluated by expressing human TNFR1, TNFR2, TNFR10, or TNFR14 on HEK293 cells by transient transfection of expression vectors encoding these genes. Binding of indicated anti-human CD40 antibody to these transfected cells was determined by flow cytometry. […] Cross-reactivity of anti-CD40 antibodies to cynomolgus monkey and mouse CD40 was evaluated by expressing cynomolgus monkey or mouse CD40 on HEK293 cells by transient transfection of expression vectors encoding these genes. Binding of indicated anti-human CD40 antibody to cells overexpressing cynomolgus monkey and mouse CD40 was determined by flow cytometry.

cynomolgus monkey CD40 = target: T1, cynomolgus monkey CD40 (cynomolgus monkey, UniProt P25942 21-193 (human entry), limits assumed); test: Octet
T1 chain: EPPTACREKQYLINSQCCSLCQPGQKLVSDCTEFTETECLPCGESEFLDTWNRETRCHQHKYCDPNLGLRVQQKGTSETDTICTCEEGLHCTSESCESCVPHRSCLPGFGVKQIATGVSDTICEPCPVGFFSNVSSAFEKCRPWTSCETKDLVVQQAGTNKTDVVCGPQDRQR
Procedure: as §1

human CD40 on cells [1] = target: T2, human CD40 on cells (human, UniProt P25942 21-277); test: cell-based or functional assay
human CD40 on cells [2] = target: T2, human CD40 on cells; test: cell-based or functional assay; remark: listed apart in the source
Target sequence in this assay (P25942 21-277 limits assumed): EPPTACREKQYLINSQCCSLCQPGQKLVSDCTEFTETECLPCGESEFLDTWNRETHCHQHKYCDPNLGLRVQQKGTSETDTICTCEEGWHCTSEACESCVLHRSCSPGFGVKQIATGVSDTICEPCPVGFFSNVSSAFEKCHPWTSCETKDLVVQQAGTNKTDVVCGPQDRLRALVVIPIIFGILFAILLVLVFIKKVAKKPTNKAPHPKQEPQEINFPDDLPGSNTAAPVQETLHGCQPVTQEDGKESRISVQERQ

mouse CD40 on cells = target: T3, mouse CD40 on cells (mouse, UniProt P27512 20-289); test: flow cytometry, HEK293 transfectants
T3 construct: whole, on cells; also called mouse CD40 on HEK293 cells; CD40 on mouse B cells
T3 sequence (looked up): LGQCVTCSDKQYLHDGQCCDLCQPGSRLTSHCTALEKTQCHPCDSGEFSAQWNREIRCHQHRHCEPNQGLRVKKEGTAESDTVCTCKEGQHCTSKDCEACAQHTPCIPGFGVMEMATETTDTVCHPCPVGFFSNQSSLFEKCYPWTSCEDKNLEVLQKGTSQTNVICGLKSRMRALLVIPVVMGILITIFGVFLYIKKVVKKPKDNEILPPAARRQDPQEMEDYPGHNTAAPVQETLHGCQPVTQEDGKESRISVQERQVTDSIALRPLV

[3] = target: T4, cynomolgus monkey CD40 on cells (cynomolgus monkey, UniProt P25942 21-277 (human entry)); test: flow cytometry, HEK293 transfectants vs control cells
T4 construct: also called cyno CD40 on HEK293 cells; CD40 on cynomolgus monkey B cells
T4 chain: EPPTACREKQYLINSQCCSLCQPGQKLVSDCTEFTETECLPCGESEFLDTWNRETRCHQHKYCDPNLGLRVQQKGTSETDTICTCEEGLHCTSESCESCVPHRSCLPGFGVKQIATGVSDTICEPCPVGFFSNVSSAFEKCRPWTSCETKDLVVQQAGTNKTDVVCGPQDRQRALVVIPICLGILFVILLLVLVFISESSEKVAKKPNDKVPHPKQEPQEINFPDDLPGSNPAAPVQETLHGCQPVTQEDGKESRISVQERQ
How it was run: (§2)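 Anti-human CD40 antibodies were tested by flow cytometry for binding to HEK293 cells transiently transfected with human TNFR1, TNFR2, TNFR10, TNFR14, or cynomolgus or mouse CD40. Affinity for human and cynomolgus CD40 was measured by Octet, giving Kon, Kdis and KD.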

human TNFR10 = target: T5, human TNFR10 (human); test: as above
T5 construct: whole, on cells; Name as printed is ambiguous (TNFRSF10A-D)
How it was run: as §2

human CD40 on cells [4] = target: T2, human CD40 on cells; test: flow cytometry, labelled CD40L on CD40-293T cells, antibody at 2.5 ug/ml
Procedure: Percent ligand binding inhibition was calculated as [(CD40L binding gMFI in the absence of anti-CD40)−(CD40L binding gMFI in the presence of anti-CD40)]/(CD40L binding gMFI in the absence of anti-CD40). gMFI: geometric mean fluorescent intensity. All anti-CD40 antibodies show minimal effects on the ability of CD40L to bind to the CD40 receptor (Table 7).
Target sequence in this assay (P25942 21-277 limits assumed): as the sequence (P25942 21-277 limits assumed) above

Chain of human CD40 (P25942 21-193 limits assumed): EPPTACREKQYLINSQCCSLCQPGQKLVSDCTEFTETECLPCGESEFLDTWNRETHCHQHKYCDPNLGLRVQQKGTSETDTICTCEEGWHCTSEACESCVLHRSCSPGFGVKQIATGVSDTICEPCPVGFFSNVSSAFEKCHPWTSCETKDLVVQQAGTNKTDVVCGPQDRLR

B1: 36F3 (antibody, IgG4, V domains shown)
VH: QVQLQQSGPGLVKPSQTLSLTCAISGDSVSSSRTAWNWIRQSPSRGLEWLGRTYYRSKWYHDYSVSVKSRITIDPDTSKNQFSLQLNSVTPEDTAVYYCARGAAPFDYWGQGTLVTVSS
VL: EIVLTQSPGTLSLSPGERATLSCRASQSVSSNYLAWYQQKPGQAPRALIYAASNRAAGISDRFSGSGSGTDFTLTISRLEPEDFAVYFCQQYGSSPLTFGGGTKVEIKR
notes: also called 4891-1
Kd (human CD40): 6.87 nM
koff (human CD40): 0.000443 s⁻¹
kon (human CD40): 64500 M⁻¹ s⁻¹
Kd (cynomolgus monkey CD40): 4.02 nM
koff (cynomolgus monkey CD40): 0.00021 s⁻¹
kon (cynomolgus monkey CD40): 52200 M⁻¹ s⁻¹
human B cell proliferation, no crosslinking, EC50 (human CD40 on cells [1]): > 16.7 nM
human B cell proliferation, no crosslinking, Max Fold Change (human CD40 on cells [1]): 1.83 fold
human B cell proliferation, with protein G crosslinking, EC50 (human CD40 on cells [1]): 0.558 nM
human B cell proliferation, with protein G crosslinking, Max Fold Change (human CD40 on cells [1]): 16.9 fold
human B cell proliferation, no crosslinking, % Max Activity (human CD40 on cells [2]): 8.2%
human B cell proliferation, no crosslinking, EC50 (human CD40 on cells [2]): > 16.7 nM
human B cell proliferation, with protein G crosslinking, % Max Activity (human CD40 on cells [2]): 81.9%
human B cell proliferation, with protein G crosslinking, EC50 (human CD40 on cells [2]): 0.3 nM
binding result (mouse CD40 on cells): no binding
fold over control (gMFI) [3]: 82 fold
fold over control (gMFI) (human TNFR10): 0.86 fold
Ligand Binding Inhibition (%) (human CD40 on cells [4]): 1%

B2: 29H10 (antibody, V domains shown)
VH: QVQLVQSGAEVTKPGASVKVSCKASGYTFAGYYMHWVRQAPGQGLEWMGWINPHSGGTNYAQKFQDRVTMTRDTSINTAYMELSRLRSDDTAVYYCARERISMVRGVGHNWFAPWGQGTLVTVSS
VL: DIQMTQSPSSLSASVGDRVTITCRASQDISNNLAWFQQKPGKPPKSLMYAASSLHSGVPSTFSGSGSGTDFTFTISSLQPEDFATYYCQQYNSYPLTFGGGTKVEIRR
notes: also called 4877-1
Kd (human CD40): 0.41 nM
koff (human CD40): 0.000164 s⁻¹
kon (human CD40): 398000 M⁻¹ s⁻¹
Kd (cynomolgus monkey CD40): 0.39 nM
koff (cynomolgus monkey CD40): 0.000244 s⁻¹
kon (cynomolgus monkey CD40): 612000 M⁻¹ s⁻¹
human B cell proliferation, no crosslinking, EC50 (human CD40 on cells [1]): > 16.7 nM
human B cell proliferation, no crosslinking, Max Fold Change (human CD40 on cells [1]): 1.35 fold
human B cell proliferation, with protein G crosslinking, EC50 (human CD40 on cells [1]): 0.235 nM
human B cell proliferation, with protein G crosslinking, Max Fold Change (human CD40 on cells [1]): 18.2 fold
human B cell proliferation, no crosslinking, % Max Activity (human CD40 on cells [2]): 4.4%
human B cell proliferation, no crosslinking, EC50 (human CD40 on cells [2]): > 16.7 nM
human B cell proliferation, with protein G crosslinking, % Max Activity (human CD40 on cells [2]): 65.9%
human B cell proliferation, with protein G crosslinking, EC50 (human CD40 on cells [2]): 0.37 nM
binding result (mouse CD40 on cells): no binding
fold over control (gMFI) [3]: 71 fold
fold over control (gMFI) (human TNFR10): 0.89 fold
Ligand Binding Inhibition (%) (human CD40 on cells [4]): -11%

B3: 33H6 (antibody, IgG4, V domains shown)
VH: QVQLVQSGAEVKKPGASVKVSCKASGYTFPGYYMYWLRQAPGQGLEWMGWINPDSGDTNYAQKFQGRVTMTRDTSISTAFMELSRLRSDDTAVYYCAREKPRYFDSFYYYLMDVWGQGTTVTVSS
VL: DIQMTQSPSSLSASVGDRVTITCRAGQNISRHLNWYQQNPGKAPKVLIHPASSLPSGVPSRFSGSGSGTDFSLTISSLQPEDFGTYFCQQSYSTPPTFGGGTKVELKR
notes: also called 4883-1
Kd (human CD40): 1.34 nM
koff (human CD40): 0.00068 s⁻¹
kon (human CD40): 509000 M⁻¹ s⁻¹
Kd (cynomolgus monkey CD40): 1.04 nM
koff (cynomolgus monkey CD40): 0.000577 s⁻¹
kon (cynomolgus monkey CD40): 556000 M⁻¹ s⁻¹
human B cell proliferation, no crosslinking, EC50 (human CD40 on cells [1]): > 16.7 nM
human B cell proliferation, no crosslinking, Max Fold Change (human CD40 on cells [1]): 1.21 fold
human B cell proliferation, with protein G crosslinking, EC50 (human CD40 on cells [1]): 0.237 nM
human B cell proliferation, with protein G crosslinking, Max Fold Change (human CD40 on cells [1]): 18.2 fold
human B cell proliferation, no crosslinking, % Max Activity (human CD40 on cells [2]): 6.5%
human B cell proliferation, no crosslinking, EC50 (human CD40 on cells [2]): > 16.7 nM
human B cell proliferation, with protein G crosslinking, % Max Activity (human CD40 on cells [2]): 73.4%
human B cell proliferation, with protein G crosslinking, EC50 (human CD40 on cells [2]): 0.26 nM
binding result (mouse CD40 on cells): no binding
fold over control (gMFI) [3]: 74 fold
fold over control (gMFI) (human TNFR10): 0.77 fold
Ligand Binding Inhibition (%) (human CD40 on cells [4]): -8%

B4: 37A6 (antibody, IgG4, V domains shown)
VH: QVQLVESGGGLVKPGGSLRLSCAASEFTFSDYYMSWIRQAPGKGLEWVSYISRSGDTIYYADSVKGRFTISRDNAKNSLYLQMNGLRAEDTAVYYCARDLAAGATGGLDCWGQGTLVTVSS
VL: SYELTQPPSVSVSPGQTASITCSGERLGNKYICWYQQKPGQSPVLVIYQDFKRPSGIPERFSGSNSGITATLTISGTQAMDEADYYCQAWDSRTVVFGGGTKLTVLG
notes: also called 4865-1
Kd (human CD40): 1.1 nM
koff (human CD40): 0.000672 s⁻¹
kon (human CD40): 612000 M⁻¹ s⁻¹
Kd (cynomolgus monkey CD40): 0.73 nM
koff (cynomolgus monkey CD40): 0.000387 s⁻¹
kon (cynomolgus monkey CD40): 531000 M⁻¹ s⁻¹
human B cell proliferation, no crosslinking, EC50 (human CD40 on cells [1]): > 16.7 nM
human B cell proliferation, no crosslinking, Max Fold Change (human CD40 on cells [1]): 1.19 fold
human B cell proliferation, with protein G crosslinking, EC50 (human CD40 on cells [1]): 0.504 nM
human B cell proliferation, with protein G crosslinking, Max Fold Change (human CD40 on cells [1]): 27.1 fold
human B cell proliferation, no crosslinking, % Max Activity (human CD40 on cells [2]): 0.4%
human B cell proliferation, no crosslinking, EC50 (human CD40 on cells [2]): > 16.7 nM
human B cell proliferation, with protein G crosslinking, % Max Activity (human CD40 on cells [2]): 80.9%
human B cell proliferation, with protein G crosslinking, EC50 (human CD40 on cells [2]): 0.3 nM
binding result (mouse CD40 on cells): no binding
fold over control (gMFI) [3]: 92 fold
fold over control (gMFI) (human TNFR10): 0.88 fold
Ligand Binding Inhibition (%) (human CD40 on cells [4]): -19%

B5: 35F11 (antibody, IgG4, V domains shown)
VH: QVQLVESGGGVVQPGRSLRLSCAASGFTLSSYGMHWVRQAPGKGLEWVAVIWYDGSNKYYADSVKGRVTISRDNSKNTLYLQMNSLRAEDTAVYYCTRDGRNYVYFDNWGQGTLVTVSS
VL: QSALTQPRSVSGSPGQSVTISCTGTSSDVGGYIFVSWYQQHPGKAPKLMIYDVSKRPSGVPDRFSGSKSVNTASLTISGLQAEDETDYYCCSYAGNYTYVFGTGTKVTVLG
notes: also called 4868-1
Kd (human CD40): 0.55 nM
koff (human CD40): 0.00031 s⁻¹
kon (human CD40): 556000 M⁻¹ s⁻¹
Kd (cynomolgus monkey CD40): 0.62 nM
koff (cynomolgus monkey CD40): 0.000314 s⁻¹
kon (cynomolgus monkey CD40): 506000 M⁻¹ s⁻¹
human B cell proliferation, no crosslinking, EC50 (human CD40 on cells [1]): > 16.7 nM
human B cell proliferation, no crosslinking, Max Fold Change (human CD40 on cells [1]): 1.33 fold
human B cell proliferation, with protein G crosslinking, EC50 (human CD40 on cells [1]): 0.371 nM
human B cell proliferation, with protein G crosslinking, Max Fold Change (human CD40 on cells [1]): 24.2 fold
human B cell proliferation, no crosslinking, % Max Activity (human CD40 on cells [2]): 4.4%
human B cell proliferation, no crosslinking, EC50 (human CD40 on cells [2]): > 16.7 nM
human B cell proliferation, with protein G crosslinking, % Max Activity (human CD40 on cells [2]): 120%
human B cell proliferation, with protein G crosslinking, EC50 (human CD40 on cells [2]): 0.3 nM
binding result (mouse CD40 on cells): no binding
fold over control (gMFI) [3]: 76 fold
fold over control (gMFI) (human TNFR10): 0.73 fold
Ligand Binding Inhibition (%) (human CD40 on cells [4]): -15%
